Positions count from the first letter of the chain named. In names and notes the source's numbering stands.
B1: E411A: TP-DNAP1 variant (protein)
chain: MDYKDKALNDLRNVYADFDSLPLDFRQILIKDRATLLQKEDVEKKILERQEDAKKYAEYLKQSEIPERISLPNIKRHKGVSISFEETSEDMVLEPRPFIFDGLNIRCFRRETIFSLKNKILNMVKESSSFKNVSRQSVSFMYFKIFNKGKVIASTKSVNIYEDKIDERLEDLCNNFDDVLKKIIDVTYGYESLFVSETYSYVIFYAKSIYFPQPRCVNNWGNNIPNILTFDSFKLFTANKNNVSCIKQCSRFLWQKDFNTLEEMIEYKNGNICIVTPQLHINDVRDIKSFNDIRLYSESPIKTFSVIDNTITYLFYFKEHLGVIFNITKSRHDRRVTKFSPLSKFSDVKNITVCFDIESYFDPEKESNQVNIPFICCASIIYNKVIGNIVDFEGRDCVAQMIEYVVDICGALNISSVELIAHNGGGYDFHYILSSMYNPAAIKNILIRNNSFISFNFAHDGVKFSVKDSYSFLLCSLANASKAFLNEETFKKTDFPHHDLKTADDLYKVYKEWSSVNTEINHVVEKEKLLITSEHIVNFTKNDKSKTLIEWSKDYCRNDVLVLSKVWLEFKNAVEDIFNCELVDQTMTLAGLSYKLFQANMPFDVELRHPNKEDYFNMREALIGGRCISVNGIYKDVLCLDVKSLYPASMAFYDQPYGSFKRVSSRPKDELGIYYVRVTPNRNNKSNFFPIRSHNKITYNNFEESTYIAWYTNVDIDIGLSEGHNIEYIPFDSYGNIGYSWSKKGKIFEKYIKDVLYKLKIKYEKQNNKVKRNVIKIIMNSLWGKFAQKWVNFEYFIKSEDDIDFESEEAYKIWDTDFMLIKKIKESTYSSKPIQNGVFTLSWARYHMKSIWDAGAKEGAECIYSDTDSIFVHKEHFKKNAKFMLNGLKVPIIGSEVGQLELECEFDKLLCAGKKQYMGFYTYFQDGKPCIKEKKRFKGIPSNYIIPELYAHLLSGADKEAKIQFLKFRREWGSVKGYIENKTVKAT
B2: E620R: TP-DNAP1 variant (protein)
chain: B1 chain with A411E, E620R
B3: N413H: TP-DNAP1 variant (protein)
chain: B1 chain with A411E, N413H
B4: K612V: TP-DNAP1 variant (protein)
chain: B1 chain with A411E, K612V
B5: D460G: TP-DNAP1 variant (protein)
chain: B1 chain with A411E, D460G
B6: E411S: TP-DNAP1 variant (protein)
chain: B1 chain with A411S
B7: I414F: TP-DNAP1 variant (protein)
chain: B1 chain with A411E, I414F
B8: R662A: TP-DNAP1 variant (protein)
chain: B1 chain with A411E, R662A
B9: E411L: TP-DNAP1 variant (protein)
chain: B1 chain with A411L
B10: N291W: TP-DNAP1 variant (protein)
chain: B1 chain with N291W, A411E
B11: K612A: TP-DNAP1 variant (protein)
chain: B1 chain with A411E, K612A
B12: F616E: TP-DNAP1 variant (protein)
chain: B1 chain with A411E, F616E
B13: N611P, V897V: TP-DNAP1 variant (protein)
chain: B1 chain with A411E, N611P
B14: E613D: TP-DNAP1 variant (protein)
chain: B1 chain with A411E, E613D
B15: K612Q: TP-DNAP1 variant (protein)
chain: B1 chain with A411E, K612Q
B16: N611Q: TP-DNAP1 variant (protein)
chain: B1 chain with A411E, N611Q
B17: N291M: TP-DNAP1 variant (protein)
chain: B1 chain with N291M, A411E
B18: L412V: TP-DNAP1 variant (protein)
chain: B1 chain with A411E, L412V
B19: N413T: TP-DNAP1 variant (protein)
chain: B1 chain with A411E, N413T
B20: G461K: TP-DNAP1 variant (protein)
chain: B1 chain with A411E, G461K
B21: E411R: TP-DNAP1 variant (protein)
chain: B1 chain with A411R
B22: S415V: TP-DNAP1 variant (protein)
chain: B1 chain with A411E, S415V
B23: E411D: TP-DNAP1 variant (protein)
chain: B1 chain with A411D
B24: E411N: TP-DNAP1 variant (protein)
chain: B1 chain with A411N
B25: E411K: TP-DNAP1 variant (protein)
chain: B1 chain with A411K
B26: N291K: TP-DNAP1 variant (protein)
chain: B1 chain with N291K, A411E
B27: G426T: TP-DNAP1 variant (protein)
chain: B1 chain with A411E, G426T
B28: K612S: TP-DNAP1 variant (protein)
chain: B1 chain with A411E, K612S
B29: E411G: TP-DNAP1 variant (protein)
chain: B1 chain with A411G
B30: N413E: TP-DNAP1 variant (protein)
chain: B1 chain with A411E, N413E

Test system: p1
Assay: p1 copy number by p1-encoded mKate2 fluorescence
Assay type: cell-based, S. cerevisiae
Conditions: OR-Y24, measured in triplicate
Description: A calibration curve was established to correlate p1 copy number, determined via quantitative PCR (qPCR), with fluorescence of p1-encoded mKate2 (Table 1). Five TP-DNAP1 variants representing a wide range of copy numbers were transformed into ORY24 and passaged until w.t. p1 was displaced. The five OR-Y24 strains were grown to saturation, diluted 1:10,000 to mimic p1 fluctuation tests, and grown in triplicate 100 μL cultures and duplicate 40 mL cultures. 100 μL saturated cultures were subject to fluorescence measurement of mKate2 (ex/em=561 nm/620 nm, bandwidth=15 nm) on a flow cytometer (Invitrogen Attune NxT). Whole-cell DNA extracts were prepared from 40 mL cultures and used as templates for qPCR measurement of p1-encoded leu2 (Q180*), as described previously (Ravikumar et al., 2014). p1-encoded LEU2 was PCR amplified with qPCR-Leu2F and qPCR Leu2R; and genomic LEU3 was PCR amplified with qPCR-Leu3F and qPCR-Leu3R using SyBR Green (Fisher Scientific) master mix.
To assay p1 copy number for large-scale p1 fluctuation tests, additional replicates of OR-Y24 strains were grown from the 1:10,000 dilution in triplicate and saturated cultures were subject to fluorescence measurement via flow cytometry. Fluorescence measurements were converted to copy number with the linear calibration curve.
To assay relative p1 copy number for small-scale p1 fluctuation tests, an additional 200 μL culture of OR-Y24 strains were grown from the 1:10,000 dilution. 200 μL saturated cultures were subject to an OD600 measurement and fluorescence measurement of mKate2 (ex/em=588 nm/633 nm), using a microplate reader (TECAN Infinite M200 PRO). A linear relationship was assumed between p1 copy number and OD600-normalized mKate2 fluorescence. Copy numbers were calculated from normalization to a w.t. TP-DNAP1 control.
For a few large-scale p1 fluctuation tests, p1 copy number was assayed by the method of small scale p1 fluctuation tests (i.e. microplate reader measurement). For these experiments, mutant TP-DNAP1 p1 copy numbers were calculated by normalization to a w.t. TP-DNAP1 control. The copy number of this control was assumed to be the average w.t. TP-DNAP1 copy number from all large-scale p1 fluctuation tests that used flow cytometry measurements.
TP-DNAP1 plasmids were isolated from these strains and subject to Sanger sequencing. 210 unique variants were identified and the corresponding plasmids were re-transformed into OR-Y24. Transformed strains were passaged in SC-UH until w.t. p1 was displaced, and subject to p1 copy number measurement in triplicate. Four high copy variants were directly subject to qPCR measurements for validation. To test the suppressor activity of the G410H mutation, which yields increased p1 copy number, this amino acid change was added to several low-activity TP-DNAP1 variants. p1 copy number was similarly assayed for these strains.

Molecule	Mean fold-increase over w.t. (p1 copy number) [fold]
B1	2.08
B2	2.29
B3	2.2
B4	1.85
B5	1.63
B6	1.52
B7	1.29
B8	1.75
B9	2.22
B10	2.26
B11	1.94
B12	2.2
B13	2.04
B14	1.82
B15	2.04
B16	1.92
B17	2.28
B18	2.21
B19	1.76
B20	2.15
B21	2.07
B22	1.44
B23	2.32
B24	1.9
B25	2.39
B26	1.66
B27	1.22
B28	1.75
B29	1.54
B30	2.62
